Data reported in paper PMC8011160.
Where “and” joins values, the source holds several entries; their conditions need not be identical. Identical values can stand only once.

Assays:
Assay in all cases: ELISA; host protein coated on microtiter wells; recombinant protein varied from 0 to 2 μM; absorbance with BSA subtracted; apparent Kd from the half-maximal binding concentration (GraphPad Prism 6)
[1] = target: plasma fibronectin (purified from human plasma) (human)
[2] = target: plasminogen (purified from human plasma) (human)
[3] = target: collagen Type I (purified from rat tail) (rat) (UniProt P02454)
Sequence of collagen Type I (purified from rat tail) (rat) (P02454 152-1207, chain 1 of 2): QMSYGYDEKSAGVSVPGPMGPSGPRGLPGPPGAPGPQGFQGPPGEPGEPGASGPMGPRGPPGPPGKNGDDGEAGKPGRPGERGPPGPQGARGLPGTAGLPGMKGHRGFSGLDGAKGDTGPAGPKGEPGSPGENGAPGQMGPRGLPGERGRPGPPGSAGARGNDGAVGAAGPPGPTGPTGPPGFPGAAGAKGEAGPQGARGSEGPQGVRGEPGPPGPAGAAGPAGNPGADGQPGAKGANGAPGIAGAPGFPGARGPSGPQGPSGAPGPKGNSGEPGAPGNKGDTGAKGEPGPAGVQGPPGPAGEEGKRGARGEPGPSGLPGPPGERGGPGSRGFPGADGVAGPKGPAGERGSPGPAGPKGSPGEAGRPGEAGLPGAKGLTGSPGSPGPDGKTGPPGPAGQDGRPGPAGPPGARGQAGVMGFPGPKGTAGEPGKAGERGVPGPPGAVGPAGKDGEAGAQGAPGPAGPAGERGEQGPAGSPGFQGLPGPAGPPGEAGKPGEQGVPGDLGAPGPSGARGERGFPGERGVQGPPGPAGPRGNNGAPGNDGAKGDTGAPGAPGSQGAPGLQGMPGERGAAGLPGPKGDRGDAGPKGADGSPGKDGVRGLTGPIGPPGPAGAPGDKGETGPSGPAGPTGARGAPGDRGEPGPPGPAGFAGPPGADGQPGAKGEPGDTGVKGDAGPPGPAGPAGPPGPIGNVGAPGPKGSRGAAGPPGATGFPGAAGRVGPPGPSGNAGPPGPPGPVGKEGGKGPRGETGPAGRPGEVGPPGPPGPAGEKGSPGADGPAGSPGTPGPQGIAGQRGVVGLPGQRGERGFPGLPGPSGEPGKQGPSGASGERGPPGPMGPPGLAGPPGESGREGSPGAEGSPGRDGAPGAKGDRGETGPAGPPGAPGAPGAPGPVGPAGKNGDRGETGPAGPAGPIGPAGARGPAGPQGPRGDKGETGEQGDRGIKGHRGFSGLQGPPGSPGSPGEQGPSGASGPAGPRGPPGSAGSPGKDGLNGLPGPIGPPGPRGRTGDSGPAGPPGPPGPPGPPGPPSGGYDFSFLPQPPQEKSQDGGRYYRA
Sequence of collagen Type I (purified from rat tail) (rat) (P02466 86-1125, chain 2 of 2, further chain): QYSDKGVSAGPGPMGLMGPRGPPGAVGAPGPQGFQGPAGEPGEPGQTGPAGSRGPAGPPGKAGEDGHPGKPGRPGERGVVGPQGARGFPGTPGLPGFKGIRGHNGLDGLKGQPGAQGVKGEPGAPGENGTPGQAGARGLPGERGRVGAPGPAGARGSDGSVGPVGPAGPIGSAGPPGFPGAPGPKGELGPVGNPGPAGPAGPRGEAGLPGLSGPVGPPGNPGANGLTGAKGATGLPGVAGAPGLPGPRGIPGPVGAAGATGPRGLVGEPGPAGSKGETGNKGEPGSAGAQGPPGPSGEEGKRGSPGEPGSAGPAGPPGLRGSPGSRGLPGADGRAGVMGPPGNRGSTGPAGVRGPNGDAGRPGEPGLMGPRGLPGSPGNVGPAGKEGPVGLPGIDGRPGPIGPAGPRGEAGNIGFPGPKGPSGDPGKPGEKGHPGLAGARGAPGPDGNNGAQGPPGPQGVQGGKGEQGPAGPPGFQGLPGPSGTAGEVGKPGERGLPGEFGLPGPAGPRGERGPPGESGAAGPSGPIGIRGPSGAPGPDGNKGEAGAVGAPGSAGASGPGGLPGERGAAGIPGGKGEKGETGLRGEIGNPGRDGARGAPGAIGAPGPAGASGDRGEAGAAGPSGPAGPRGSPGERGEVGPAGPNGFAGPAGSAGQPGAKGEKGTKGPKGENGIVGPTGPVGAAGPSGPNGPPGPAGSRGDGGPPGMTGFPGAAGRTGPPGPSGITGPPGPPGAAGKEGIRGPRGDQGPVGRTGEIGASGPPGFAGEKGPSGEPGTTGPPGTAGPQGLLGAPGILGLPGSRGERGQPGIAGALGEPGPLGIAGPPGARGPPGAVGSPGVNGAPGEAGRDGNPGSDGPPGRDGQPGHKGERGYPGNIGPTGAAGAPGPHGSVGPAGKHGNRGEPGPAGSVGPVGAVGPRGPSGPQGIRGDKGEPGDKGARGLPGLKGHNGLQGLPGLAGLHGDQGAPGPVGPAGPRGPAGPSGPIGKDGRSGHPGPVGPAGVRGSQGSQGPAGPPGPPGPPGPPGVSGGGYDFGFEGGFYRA

[4] = target: collagen Type IV (purified from basement membrane of Engelbreth-Holm-Swarm mouse sarcoma) (mouse) (UniProt P02463)
[5] = target: elastin (purified from bovine neck ligament) (bovine) (UniProt P04985)
Sequence of elastin (purified from bovine neck ligament) (bovine) (P04985 27-747): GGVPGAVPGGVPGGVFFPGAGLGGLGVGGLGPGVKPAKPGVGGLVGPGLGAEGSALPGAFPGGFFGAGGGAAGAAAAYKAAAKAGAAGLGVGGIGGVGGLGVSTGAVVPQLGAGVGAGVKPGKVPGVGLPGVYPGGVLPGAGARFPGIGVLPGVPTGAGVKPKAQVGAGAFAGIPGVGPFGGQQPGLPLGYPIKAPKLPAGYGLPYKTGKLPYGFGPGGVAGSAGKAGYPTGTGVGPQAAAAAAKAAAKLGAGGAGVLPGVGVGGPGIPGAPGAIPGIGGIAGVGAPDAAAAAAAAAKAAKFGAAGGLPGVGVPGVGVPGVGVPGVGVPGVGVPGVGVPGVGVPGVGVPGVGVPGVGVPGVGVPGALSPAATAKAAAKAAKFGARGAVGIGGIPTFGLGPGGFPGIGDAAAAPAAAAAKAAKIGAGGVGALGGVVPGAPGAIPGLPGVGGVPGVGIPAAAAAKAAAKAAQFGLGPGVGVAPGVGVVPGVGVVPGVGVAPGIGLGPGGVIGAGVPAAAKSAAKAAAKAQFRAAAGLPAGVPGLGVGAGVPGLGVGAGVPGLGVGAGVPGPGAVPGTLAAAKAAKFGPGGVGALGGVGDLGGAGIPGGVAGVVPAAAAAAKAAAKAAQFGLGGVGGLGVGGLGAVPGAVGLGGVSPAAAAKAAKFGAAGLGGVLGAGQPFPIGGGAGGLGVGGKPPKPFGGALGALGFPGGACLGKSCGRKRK

[6] = target: fibrinogen (purified from human plasma) (human) (UniProt P02671)
Sequence of fibrinogen (purified from human plasma) (human) (P02671 other isoform, or with tags, fused parts or gaps, chain 1 of 3): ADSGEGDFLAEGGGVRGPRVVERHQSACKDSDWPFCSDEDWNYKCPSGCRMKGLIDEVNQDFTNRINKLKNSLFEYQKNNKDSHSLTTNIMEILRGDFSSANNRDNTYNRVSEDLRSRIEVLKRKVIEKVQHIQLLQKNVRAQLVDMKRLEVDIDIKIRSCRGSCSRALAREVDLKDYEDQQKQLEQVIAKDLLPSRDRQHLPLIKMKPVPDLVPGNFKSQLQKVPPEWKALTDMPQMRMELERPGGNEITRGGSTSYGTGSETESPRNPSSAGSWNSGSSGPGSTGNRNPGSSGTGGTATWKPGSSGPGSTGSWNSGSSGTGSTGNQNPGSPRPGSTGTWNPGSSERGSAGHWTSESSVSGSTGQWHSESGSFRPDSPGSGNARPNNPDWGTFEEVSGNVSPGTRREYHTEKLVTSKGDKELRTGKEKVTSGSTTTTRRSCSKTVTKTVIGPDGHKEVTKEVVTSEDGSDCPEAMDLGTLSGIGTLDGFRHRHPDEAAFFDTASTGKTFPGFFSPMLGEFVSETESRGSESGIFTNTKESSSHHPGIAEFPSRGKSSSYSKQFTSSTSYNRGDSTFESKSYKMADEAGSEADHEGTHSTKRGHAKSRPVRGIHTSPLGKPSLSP
Sequence of fibrinogen (purified from human plasma) (human) (P02675 31-491, chain 2 of 3, further chain): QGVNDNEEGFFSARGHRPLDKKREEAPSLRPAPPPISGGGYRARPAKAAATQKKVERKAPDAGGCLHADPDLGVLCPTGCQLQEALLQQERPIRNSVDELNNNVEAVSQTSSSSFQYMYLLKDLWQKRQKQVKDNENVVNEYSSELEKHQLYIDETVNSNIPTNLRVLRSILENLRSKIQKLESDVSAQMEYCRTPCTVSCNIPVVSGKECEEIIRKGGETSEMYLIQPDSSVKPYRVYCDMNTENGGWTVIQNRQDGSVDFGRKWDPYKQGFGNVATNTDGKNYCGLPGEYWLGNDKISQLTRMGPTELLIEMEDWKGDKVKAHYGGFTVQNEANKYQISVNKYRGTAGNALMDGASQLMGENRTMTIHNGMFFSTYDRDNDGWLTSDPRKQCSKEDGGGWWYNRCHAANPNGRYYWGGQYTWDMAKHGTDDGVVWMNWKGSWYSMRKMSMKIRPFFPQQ
Sequence of fibrinogen (purified from human plasma) (human) (P02679 other isoform, or with tags, fused parts or gaps, chain 3 of 3, further chain): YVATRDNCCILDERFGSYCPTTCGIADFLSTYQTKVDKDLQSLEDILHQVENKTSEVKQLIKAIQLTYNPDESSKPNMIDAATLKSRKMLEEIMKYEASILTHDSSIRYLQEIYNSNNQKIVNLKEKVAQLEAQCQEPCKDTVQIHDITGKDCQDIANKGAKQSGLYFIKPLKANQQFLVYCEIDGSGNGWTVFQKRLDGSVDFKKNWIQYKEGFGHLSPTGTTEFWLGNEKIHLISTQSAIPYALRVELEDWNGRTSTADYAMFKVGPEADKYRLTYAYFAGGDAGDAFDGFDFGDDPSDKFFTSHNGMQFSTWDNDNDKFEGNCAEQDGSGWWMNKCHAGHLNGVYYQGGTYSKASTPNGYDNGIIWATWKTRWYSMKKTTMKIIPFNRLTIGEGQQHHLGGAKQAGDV

[7] = target: laminin (purified from basement membrane of Engelbreth-Holm-Swarm mouse sarcoma) (mouse) (UniProt P19137)

Sequence of GroEL protein of Leptospira interrogans (recombinant, His-tagged) (P61438 whole entry): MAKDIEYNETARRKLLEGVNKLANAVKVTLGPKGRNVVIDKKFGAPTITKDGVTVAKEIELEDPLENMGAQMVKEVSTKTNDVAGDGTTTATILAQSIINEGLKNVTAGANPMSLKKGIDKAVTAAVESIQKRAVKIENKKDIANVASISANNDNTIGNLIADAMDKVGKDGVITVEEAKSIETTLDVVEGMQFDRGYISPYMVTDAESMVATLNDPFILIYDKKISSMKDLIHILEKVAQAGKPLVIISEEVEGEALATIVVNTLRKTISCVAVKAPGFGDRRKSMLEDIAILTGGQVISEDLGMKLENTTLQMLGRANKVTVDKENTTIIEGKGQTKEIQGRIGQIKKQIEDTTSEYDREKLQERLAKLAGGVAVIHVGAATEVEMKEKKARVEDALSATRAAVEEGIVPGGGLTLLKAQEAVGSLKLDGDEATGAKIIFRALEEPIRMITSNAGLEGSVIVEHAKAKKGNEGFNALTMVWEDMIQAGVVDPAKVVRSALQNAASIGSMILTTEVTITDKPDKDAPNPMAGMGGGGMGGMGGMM

GroEL protein of Leptospira interrogans (recombinant, His-tagged) (from UniProt P61438 1-546) (natural protein)
Kd [1]: 34 nM and 10 nM
Kd [2]: 31 nM

leptospiral protein 25 (Lp25) (natural protein)
Kd [3]: 699 nM
Kd [4]: 2420 nM
Kd [5]: 606 nM
Kd [6]: 606 nM
Kd [7]: 1140 nM
Kd [1]: 5370 nM and 6370 nM
Kd [2]: 4430 nM

truncated form of leptospiral immunoglobulin-like protein B (LigBC, amino acids 631-1156) (from UniProt Q72V39 631-1156) (domain or fragment)
Kd [1]: 15 nM and 6 nM
Kd [2]: 5 nM
